Tests used:
[1] = target: OCP variant devoid of the N-terminal extension, purple fraction, ΔNTE(P) (Synechocystis) (UniProt P74102); test: SEC
[2] = target: T1, Orange Carotenoid Protein, wildtype, His6-tagged, Synechocystis (OCP^WT) (Synechocystis, UniProt P74102 1-317); test: cross-linking
T1 sequence: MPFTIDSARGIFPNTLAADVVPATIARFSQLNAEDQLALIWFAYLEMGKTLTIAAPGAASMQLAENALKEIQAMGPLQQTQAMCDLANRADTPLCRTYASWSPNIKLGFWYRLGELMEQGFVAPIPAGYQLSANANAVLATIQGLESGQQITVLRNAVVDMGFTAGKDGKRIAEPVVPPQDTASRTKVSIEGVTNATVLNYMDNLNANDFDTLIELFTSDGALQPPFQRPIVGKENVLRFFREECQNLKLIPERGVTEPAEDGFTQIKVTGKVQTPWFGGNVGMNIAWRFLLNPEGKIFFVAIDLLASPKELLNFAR

[3] = target: the molecule itself; test: cross-linking
[4] = target: T2, OCP variant devoid of the N-terminal extension, orange fraction, ΔNTE(O) (Synechocystis, UniProt P74102 21-317); test: SEC
T2 sequence: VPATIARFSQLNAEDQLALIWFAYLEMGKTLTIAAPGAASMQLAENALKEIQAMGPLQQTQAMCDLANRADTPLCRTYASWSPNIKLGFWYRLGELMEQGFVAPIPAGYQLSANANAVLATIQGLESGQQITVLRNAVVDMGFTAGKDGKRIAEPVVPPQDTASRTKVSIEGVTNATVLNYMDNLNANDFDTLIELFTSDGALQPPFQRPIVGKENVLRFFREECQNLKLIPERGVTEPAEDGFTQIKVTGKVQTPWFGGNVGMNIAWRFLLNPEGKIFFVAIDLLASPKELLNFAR

Work on “OCP variant devoid of the N-terminal extension, purple fraction, ΔNTE(P) (from UniProt P74102 21-317) (domain or fragment)” yielded a stoichiometry N [1] of 2.

B1: Fluorescence Recovery Protein (FRP), His6-tagged, Synechocystis (natural protein)
chain: LQTAEAPWSQAETQSAHALFRKAYQRELDGLLATVQAQASQITQIDDLWKLHDFLSAKRHEIDGKYDDRQSVIIFVFAQLLKEGLVQAEELTFLAADKQSKIKALARL
With B1 the “stoichiometry N” value [2] was 1, the “stoichiometry N” value [3] was 2 and the Kd [4] was < 1000 nM. For the same molecule, the “stoichiometry N” value [4] was 1.

Reference: publication doi:10.1101/116491 (bioRxiv, 2017)
